Where a chain is given by its changes, count along the chain named. Each block holds one binder with its values, some of them ahead of it.
Key:
[1] = target: T1, human CCL2 (MCP1) - wild type (wt) (human, UniProt P13500 24-99); assay: cell-based or functional assay
[2] = target: T2, human CCL7 (MCP3) - wild type (wt) (human, UniProt P80098 24-99); assay: SPR (Biacore T200), 25 °C, ACES pH 7.4; antibody captured on anti-human IgG (Fc), chemokine injected at 5 nM and 20 nM
T2 construct: Bought from R&D Systems for the homolog assay
Experimental: (§1) Biacore assay method: The binding of anti-CCL2 antibodies to the CCL homologs e.g. CCL2 (MCP-1), CCL8 (MCP-2), CCL7 (MCP-3), and CCL13 (MCP-4) were assessed at 25° C. using Biacore T200 instrument (GE Healthcare). Mouse anti-human IgG (Fc) (GE Healthcare) was immobilized on each flow cells of a CM4 sensor chip using amine coupling kit (GE Healthcare) according to the recommended settings by the manufacturer. Antibodies and analytes were diluted into ACES pH 7.4 buffer (20 mM ACES, 150 mM NaCl, 1 mg/ml BSA, 0.05% Tween 20, 0.005% NaN3). Antibodies were captured onto the anti-Fc sensor surfaces, then recombinant human CCL homologs proteins was injected over the flow cell at 5 nM and 20 nM. […] Sensor surface was regenerated each cycle with 3M MgCl2. Binding sensorgram was processed using Biacore T200 Evaluation software, version 2.0 (GE Healthcare).

[3] = target: T3, human CCL8 (MCP2) - wild type (wt) (human, UniProt P80075 24-99); assay: as above
T3 construct: also called huCCL8
T3 sequence: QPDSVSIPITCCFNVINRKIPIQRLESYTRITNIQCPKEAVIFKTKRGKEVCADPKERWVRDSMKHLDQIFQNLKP
Experimental: as §1

[4] = target: T4, human CCL2 (MCP1) - P8A variant (human, UniProt P13500 24-99); assay: SPR T200, 37 C, antibody captured, 1:1 model
T4 construct: In-house point mutant that cannot dimerise; also called monomeric human CCL2; monomeric CCL2
Experimental: (§2) Antibody clone supernatants were diluted 1:2 in system buffer and were captured for 1 min at 5 μl/min. […] Analyte kinetics were performed at 30 μl/min. As analyte in solution wt human CCL2 or monomeric CCL2 P8A variant CCL2 were used. Analytes were injected at 90 nM highest concentration. The analyte contact time was 3 min and the dissociation time was 10 min. The Biaevaluation software V.3.0 was used according to the instructions of the manufacturer GEHC. A 1:1 binding model with RMAX local was applied to apparently estimate kinetic rates.

[5] = target: T1, human CCL2 (MCP1) - wild type (wt); assay: SPR T200, 37 C, antibody captured, 1:1 model
Experimental: as §2

[6] = target: T1, human CCL2 (MCP1) - wild type (wt); assay: cell-based or functional assay; remark: listed apart in the source
[7] = target: T5, human FcγRIIb receptor on CHO-K1 cells (clone 223) (human, UniProt P31994 43-310); assay: cell-based or functional assay
T5 sequence (looked up): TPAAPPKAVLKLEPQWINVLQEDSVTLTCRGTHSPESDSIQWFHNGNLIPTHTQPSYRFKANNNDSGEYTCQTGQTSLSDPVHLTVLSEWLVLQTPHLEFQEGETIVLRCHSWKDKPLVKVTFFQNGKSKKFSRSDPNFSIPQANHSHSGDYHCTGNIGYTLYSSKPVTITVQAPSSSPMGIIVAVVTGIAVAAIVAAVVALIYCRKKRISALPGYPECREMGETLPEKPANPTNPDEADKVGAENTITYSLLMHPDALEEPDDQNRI

[8] = target: T4, human CCL2 (MCP1) - P8A variant; assay: number printed beside the row of sensorgrams; the assay and the CCL2 form behind the number are not stated on the sheet (the sensorgrams are on monomeric CCL2)
[9] = target: T1, human CCL2 (MCP1) - wild type (wt); assay: SPR, C1 chip, anti-human Fc capture, 25 C, pH 7.4, Langmuir 1:1
Experimental: The sample and system buffer was PBS-T (10 mM phosphate buffered saline including 0.05% Tween20) pH 7.4. The flow cell was set to 25° C.—and the sample block set to 12° C.—and primed with running buffer twice. The bispecific antibody was captured by injecting a 2 μg/ml solution for 60 see at a flow rate of 10 μl/min. Association was measured by injection of human CCL2 (wt) in various concentrations in solution for 150 see at a flow rate of 30 μl/min starting with 30 nM in 1:10 dilutions. The dissociation phase was monitored for up to 1200 sec and triggered by switching from the sample solution to running buffer. […] Bulk refractive index differences were corrected by subtracting the response obtained from a goat anti human IgG Fc surface. Blank injections are also subtracted (=double referencing). For calculation of kinetic parameters, the Langmuir 1:1 model was used.

[10] = target: T1, human CCL2 (MCP1) - wild type (wt); assay: SPR T200, 25 C, anti-human Fc capture, 1:1 model, pH 7.1
Experimental: (§3) An antibody capture system was established. 13000 MAb<h-Fc-pan>M-R10Z8E9-IgG (Roche) were immobilized at 25° C. at 18 μg/ml in 10 mM sodium acetate buffer pH 5.0, by EDC/NHS coupling as described by the manufacturer. The capture system was regenerated by an injection at 20 μl/min with HBS buffer (100 mM HEPES pH 7.4, 1.5 M NaCl, 0.05% (w/v) Tween 20), followed by a 1 min 15 see injection with 10 mM NaOH and two 10 mM glycine buffer pH 2.5 injections for 1 min. Antibodies were captured were injected for 30 see at 10 μl/min at 80 nM concentration diluted in the respective system buffer. […] The analyte contact time was 3 min and the dissociation time was 10 min. Analyte kinetics were performed at 50 μl/min.
(§4) The Biaevaluation software V.3.0 was used according to the instructions of the manufacturer GEHC. A 1:1 binding model with RMAX local was applied to determine kinetic rates.

[11] = target: T1, human CCL2 (MCP1) - wild type (wt); assay: SPR T200, 25 C, anti-human Fc capture, 1:1 model, pH 5.9
Experimental: as §3, §4

[12] = target: T1, human CCL2 (MCP1) - wild type (wt); assay: SPR T200, 25 C, anti-human Fc capture, 1:1 model, pH 6.7
[13] = target: T1, human CCL2 (MCP1) - wild type (wt); assay: SPR T200, 25 C, anti-human Fc capture, 1:1 model, pH 7.4
Experimental: as §3, §4

[14] = target: T1, human CCL2 (MCP1) - wild type (wt); assay: SPR T200, 25 C, anti-human Fc capture, 1:1 model, pH 8.3
Experimental: as §3, §4

[15] = target: T1, human CCL2 (MCP1) - wild type (wt); assay: SPR T200, 25 C, anti-human Fc capture, 1:1 model, pH 5.5
Experimental: as §3, §4

[16] = target: T1, human CCL2 (MCP1) - wild type (wt); assay: SPR T200, 25 C, anti-human Fc capture, 1:1 model, pH 6.3
[17] = target: T1, human CCL2 (MCP1) - wild type (wt); assay: SPR T200, 25 C, anti-human Fc capture, 1:1 model, pH 7.9
Experimental: as §3, §4

B1: 1G9 (antibody, IgG1, V domains shown)
VH: QSLEESGGDLVKPGASLTLTCKASGIDFSLYSYMCWVRQAPGKGLEWIACVDAGASGSTYYASWAKGRFTISKTSSTTVTLQMTSLTAADTATYFCARGILYYTWPYPAGAIDAFDSWGPGTLVTVSS
VL: AYDMTQTPASVSEPVGGTVTIKCQASESISNYLSWYQQKPGQPPKLLIYKASTLASGVPSRFKGSGSGTEYTVTISGVQSDDAATYYCQQSYSSSNVFNTFGGGTEVVVK
notes: also called CCL2-0010
THP1 chemotaxis [fold change compared to IgG control] [1]: 0.9 fold | binding result [2]: no binding (tested: 20 nM) | binding result [3]: binds | Kd [4]: 0.051 nM | T1/2 [4]: 218 min | Kd [5]: 0.062 nM | T1/2 [5]: 177 min

B2: CKLO2-GG03/GG04 (=P1AF8140) (bispecific antibody)
heavy 1: DIQMTQSPSSLSASVGDRVTITCKAFEDIYNRRAWYQQKPGKAPKLLIHGATSLEHGVPSRFSGSGSGTDYTLTISSLQPEDFATYYCQQFWSAPYTFGGGTKVEIKSSASTKGPSVFPLAPSSKSTSGGTAALGCLVKDYFPEPVTVSWNSGALTSGVHTFPAVLQSSGLYSLSSVVTVPSSSLGTQTYICNVNHKPSNTKVDKKVEPKSCDKTHTCPPCPAPEYLGGDSVFLFPPKPKDVLMISRTPEVTCVVIDVSHEDPEVKFNWYVDGVEVHNAKTKPREEQYNSTYRVVSVLPVLHRDWLNGKEYKCKVSNKALPKPIEKTISKAKGQRREPQVYTLPPCREEMTKNQVSLWCLVKGFYPSDIAVEWESNGQPENNYKTTPPVLDSDGSFFLYSKLTVDKSRWQQGNVFSCSVMHEALHAHYTRKELSLSP
heavy 2: not shown
light 1: QVQLVQSGAEVKKPGSSVKVSCKASGLTISHTYMHWVRQAPGQGLEWMGRIDPDNHNTKFDPKFQGRVTITADTSTSTAYMELSSLRSEDTAVYYCARGVFGFFEHWGQGTTVTVSSASVAAPSVFIFPPSDEQLKSGTASVVCLLNNFYPREAKVQWKVDNALQSGNSQESVTEQDSKDSTYSLSSTLTLSKADYEKHKVYACEVTHQGLSSPVTKSFNRGEC
light 2: EIVLTQSPATLSLSPGERATLSCRASQHVSDAYLAWYQQKPGQAPRLLIYDASDRAEGVPARFSGSGSGTDFTLTISSLEPEDFAVYYCHQYIHLHSFTFGQGTKVEIKRTVAAPSVFIFPPSDRKLKSGTASVVCLLNNFYPREAKVQWKVDNALQSGNSQESVTEQDSKDSTYSLSSTLTLSKADYEKHKVYACEVTHQGLSSPVTKSFNRGEC
IC50, inhibition of THP-1 migration (chemotaxis assay) [6]: 0.3 µg/mL | EC50 (read off the curve) of the depletion of CCL2 from the supernatant of FcγRIIb CHO cells [7]: ~1 nM

B3: 1A5 (antibody, IgG1, V domains shown)
VH: QEQLVESGGDLVKPEGSLTLTCTASGFSFSTSYWMCWVRQAPGKGLELIACISSSIGVTYYASWAEGRFTISKTSSTTVTLQMTSLTVADTATYFCARTTDDNWNVGFNLWGPGTLVTVSS
VL: AYDMTQTPASVEVGVGGTVTIKCQASQSIGNRYLSWYQQKPGQPPKLLIYGTSTLASGVSSRFKGSGSGTQFTLTISGVESADSATYYCQQGATISYLDNAFGGGTEVVVK
notes: also called CCL2-0009
THP1 chemotaxis [fold change compared to IgG control] [1]: 3.6 fold | binding result [2]: binds | binding result [3]: no binding (tested: 20 nM) | Kd [4]: 0.046 nM | T1/2 [4]: 137 min | Kd [5]: 0.024 nM | T1/2 [5]: 160 min

B6: CNTO888H0635/CNTO888L0616 (antibody, V domains shown)
VH: QVQLVQSGAEVKKPGSSVKVSCKASGGTFSHYGISWVRQAPGQGLEWMGGHIHIFGTANYAQKFQGRVTITADESTSTAYMELSSLRSEDTAVYYCARYDAHYGELDFWGQGTLVTVSS
VL: EIVLTQSPATLSLSPGERATLSCRASQHVSDAYLAWYQQKPGQAPRLLIYDASDRAEGVPARFSGSGSGTDFTLTISSLEPEDFAVYYCHQYIHLHSFTFGQGTKVEIK
notes: also called modified CNTO888 variant (VH H0635 / VL L0616)
Affinity relative to parent CNTO888 [8]: 3 X

B7: ABN912 (antibody, IgG1, V domains shown)
VH: EVQLVQSGGGLVQPGGSLRLSCAASGFTFSHYWMSWVRQAPGKGLEWLANIEQDGSEKYYVDSVKGRFTISRDNAKNSLYLQMNSLRAEDTAVYFCARDLEGLHGDGYFDLWGRGTLVTVSS
VL: AIQLTQSPSSLSASVGDRVILTCRASQGVSSALAWYQQKPGKAPKLLIYDASSLESGVPSRFSGSGSGPDFTLTISSLQPEDFATYFCQQFNSYPLTFGGGTKVEIK
notes: IgG1 with kappa light chain; also called AB912; CCL2-0003
t 1/2* [9]: 27 min | Kd [10]: 0.02 nM | t 1/2-diss. [10]: 20 min | Kd [11]: 13 nM | t 1/2-diss. [11]: 1 min | THP1 chemotaxis [fold change compared to IgG control] [1]: 6.5 fold | Kd [12]: 0.2 nM | t 1/2-diss. [12]: 8 min | Kd [13]: 0.01 nM | t 1/2-diss. [13]: 33 min | Kd [14]: 4 pM | t 1/2-diss. [14]: 35 min | Kd [15]: 2000 nM | t 1/2-diss. [15]: 0.03 min | Kd [4]: 0.046 nM | T1/2 [4]: 25 min | Kd [5]: 0.036 nM | T1/2 [5]: 33 min | Kd [16]: 1 nM | t 1/2-diss. [16]: 3 min | Kd [17]: 4 pM | t 1/2-diss. [17]: 25 min

Continued, values first:

binding result [2]: no binding (tested: 20 nM)
B4: CNTO888 (antibody, V domains shown)
VH: B6 VH with H31S, H51I, H53P, A101G, H102I
VL: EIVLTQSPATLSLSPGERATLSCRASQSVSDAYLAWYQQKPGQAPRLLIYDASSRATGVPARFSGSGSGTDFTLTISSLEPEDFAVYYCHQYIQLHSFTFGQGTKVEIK
notes: IgG1 wild type with kappa light chain; also called CCL2-0004; CNTO888-IgG1

Affinity relative to parent CNTO888 [8]: 1 X
B5: CNTO888H0695/CNTO888L0616 (antibody, V domains shown)
VH: B6 VH with H51V, H53P, G56H
VL: B6 VL
notes: also called modified CNTO888 variant (VH H0695 / VL L0616)

Source: patent publication US20240360208A1 (Hoffmann-La Roche, published 2024)
